Patent US6835539B1, “Nucleic sequences coding for an AT2 interacting proteins interacting with the AT2 receptor and their applications” (priority 1998, dated 2004)

T1: AT2 receptor (Homo sapiens, UniProt P50052)
T1 sequence (P50052 1-363): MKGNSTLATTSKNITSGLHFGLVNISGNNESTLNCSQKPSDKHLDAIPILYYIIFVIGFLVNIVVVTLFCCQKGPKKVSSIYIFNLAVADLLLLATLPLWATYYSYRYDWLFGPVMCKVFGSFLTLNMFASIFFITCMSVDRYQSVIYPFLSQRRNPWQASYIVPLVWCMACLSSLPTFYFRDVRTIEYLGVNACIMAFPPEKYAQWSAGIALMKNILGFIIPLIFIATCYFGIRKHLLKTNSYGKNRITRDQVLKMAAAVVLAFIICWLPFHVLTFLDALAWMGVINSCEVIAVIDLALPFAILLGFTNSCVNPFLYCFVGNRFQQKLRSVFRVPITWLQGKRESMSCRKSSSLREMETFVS

T2: C-terminal end of the mouse AT2 receptor (Mus musculus, UniProt P35374)
T2 construct: expressed in transfected cells; host or cells: yeast HF7c (pGBT9 bait) or L40 (pLex9 bait)
T2 sequence (P35374 312-363): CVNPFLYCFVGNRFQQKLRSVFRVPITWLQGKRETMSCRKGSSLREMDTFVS

T3: C-terminal end of the human AT2 receptor (Asn314-Ser363) (Homo sapiens, UniProt P50052)
T3 construct: C-terminal end of the human AT2 receptor (Asn314-Ser363); made in house; host or cells: E. coli DH5α (pMAL-c2-AT2)
T3 sequence (P50052 314-363): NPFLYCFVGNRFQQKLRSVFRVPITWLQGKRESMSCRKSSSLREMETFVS

T4: C-terminal end of human AT1 receptor (Leu 297-Glu 359) (Homo sapiens, UniProt P30556)
T4 construct: C-terminal end of human AT1 receptor (Leu 297-Glu 359); made in house; host or cells: bacteria, same protocol as MBP-AT2 (E. coli DH5α)
T4 sequence (P30556 297-359): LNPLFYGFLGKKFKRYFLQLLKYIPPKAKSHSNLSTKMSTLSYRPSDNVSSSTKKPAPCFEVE

B1: ATIPmouse-short: Polypeptide (SEQ ID NO:6) encoded by the 354 bp ATIP clone (SEQ ID NO:5); AT2 interacting protein fragment, used as a GST fusion (protein)
chain: HQTDRTELENRLKDLYTAECEKLQSIYIEEAEKYKTQLQEQFDNLNAAHETTKLEIEASHSEKVELLKKTYETSLSEIKKSHEMEKKSLEDLLNEKQESLEKQINDLKSENDALNERL
modifications: used as GST fusion; Insert identified by yeast two hybrid screening of a M. musculus fetal cDNA library

Assays:
AT2 receptor [1] = molecular target: T1, AT2 receptor; assay: Inhibition of insulin-induced tyrosine phosphorylation in CHO-hAT2-ATIP cells; format: cell-based; parameters: a plasmid containing the region encoding the human AT2 receptor; expressed in transfected cells; host or cells: CHO-hAT2 cells stably transfected with ATIPmouse-long; conditions: 100 nM, insulin 0.05, 0.01, 0.005, 0.001 μg/ml, reproduced 3 times
Text: (§1) For that, a stable clone of CHO-hAT2 cells expressing the ATIPmouse-long protein (CHO-hAT2-ATIP), obtained according to the methodology described in Example 4, was used; the functional test for the activity of the AT2 receptor developed on the CHO-hAT2 clone which consists in inhibiting the phosphorylation of the IRβ subunit of the insulin receptor induced by its ligand, was reproduced.
The CHO-hAT2 cells are inoculated at a density of 3×10^6 cells per dish having a diameter of […]. They are made quiescent by 16 hours of deprivation before being treated. The treatment consists in bringing into contact for 5 minutes with 15 ml of F12 medium containing insulin supplemented or otherwise with CGP42112 (selective agonist of the AT2 receptor). […] After bringing into contact and washings, the lectin beads coupled to Sepharose (Pharmacia) are recovered in sample buffer containing SDS and the eluted proteins are analysed in SDS-PAGE followed by immunoblotting with anti-phosphotyrosine antibodies (Upstate Biotechnology, Inc.) or anti-IRβ antibodies (described in Issad, T. et al., cited above). […]

AT2 receptor [2] = molecular target: T1, AT2 receptor; assay: Inhibition of insulin-induced tyrosine phosphorylation in CHO-hAT2 cells; format: cell-based; parameters: a plasmid containing the region encoding the human AT2 receptor; expressed in transfected cells; host or cells: CHO cells deficient in dihydrofolate reductase (clone CHO-hAT2)
Text: as §1
The CHO-hAT2 cells are inoculated at a density of 3×10^6 cells per dish having a diameter of […]. They are made quiescent by 16 hours of deprivation before being treated. […] After treatment, the cells are solubilized in lysis buffer containing: 50 mM Hepes, pH 7.6, 1% Triton X-100, 20 mM EDTA, 30 mM sodium pyrophosphate, 30 mM sodium fluoride, 2 mM benzamidine, 1 mM sodium orthovanadate, 1 mM phenylmethylsulphonyl fluoride and 1 μg/ml of aprotinin, pepstatin, antipain and leupeptin. The lysates are then subjected to purification on a wheatgerm lectin column, according to the protocol described in Issad, T. et al., (Eur. J. Biochem. 1995, 234, 108-115). After bringing into contact and washings, the lectin beads coupled to Sepharose (Pharmacia) are recovered in sample buffer containing SDS and the eluted proteins are analysed in SDS-PAGE followed by immunoblotting with anti-phosphotyrosine antibodies (Upstate Biotechnology, Inc.) or anti-IRβ antibodies (described in Issad, T. et al., cited above).

[3] = molecular target: T2, C-terminal end of the mouse AT2 receptor; assay: Two-hybrid interaction of the ATIP clone with the AT2 C-terminal bait; format: binding; conditions: baits in pGBT9 and pLEX9; mouse foetal cDNA library clone
Text: In the two-hybrid system, the DNA-binding domain is fused with a protein X and the activation domain is fused with a protein Y. If, and only if, X and Y interact, a complex is formed which reconstitutes a functional transcription factor.
Protein X: C-terminal end of the sequence encoding the mouse AT2 receptor (52 amino acids of CVNPF at the stop codon, see FIG. 1), fused with the sequence encoding the Gal4 DNA-binding domain (FIG. 2).
Insert: end of the mouse AT2 receptor (159 bp+16 bp of sites generated by PCR) inserted at the level of the EcoRI and BamHI sites of the vectors pLEX9 (Clontech) or pGBT9 (modified pGAD424 or pBTM116; A. B. Vojtek et al., Cell, 1993, 74, 205-214).
mouse foetal cDNA library (A. B. Vojtek et al., Cell, 1993, 74, 205-214) , containing inserts of 350 to 700 bp (protein Y) in the vector VP16 (FIG. 5).
HF7c (Clontech) for the bait constructed in pGBT9;
L40 for the bait constructed in pLex9.

[4] = tested on: C-terminal end of the human bradykinin receptor; assay: Two-hybrid selectivity test with a control bait; format: binding
Text: (§2) Protein X: C-terminal end of the human β2-adrenergic receptors, rat AT1 or human bradykinin.

[5] = molecular target: T5, C-terminal end of the human β2 adrenergic receptor (Homo sapiens, UniProt P07550); assay: Two-hybrid selectivity test with a control bait; format: binding
T5 construct: C-terminal end of the human β2-adrenergic receptors; expressed in transfected cells
Text: as §2

[6] = tested on: C-terminal end of the rat AT1 receptor; assay: Two-hybrid selectivity test with a control bait; format: binding
Text: as §2

[7] = molecular target: T3, C-terminal end of the human AT2 receptor (Asn314-Ser363); assay: In vitro GST pull-down of MBP-AT2 on GA-GST-ATIPmouse-short beads; format: binding; conditions: compared with GA-GSTalone beads; SDS-PAGE and anti-MBP immunoblot; FIG. 10
Experimental: For that, the fusion protein GST-ATIP as described above was produced; it is combined through its GST part with glutathione coupled to agarose beads (GA). In parallel, bacteria (DH5α) are transfected with a plasmid (pMAL-c2-AT2, derived from pMAL-c2 from New England Biolabs) encoding a fusion protein between the C-terminal end of the human AT2 receptor (Asn314-Ser363) and MBP (Maltose Binding Protein). These bacteria were cultured and the fusion protein was induced in 0.3 mM IPTG according to the protocol “pMAL Protein Fusion and Purification System” from New England Biolabs. After centrifugation of the culture at 4000 g and solubilization of the pellet obtained in “column buffer” (20 mM Tris-HCl, 200 mM NaCl, 1 mM EDTA), another centrifugation at 9000 g made it possible to recover a supernatant containing a high concentration of MBP-AT2. This supernatant was brought into contact, for 3 hours at […], with glutathione agarose beads coupled to GST protein alone after addition of NaCl so as to have 300 mM final NaCl. This preincubation step makes it possible to remove the nonspecific interactions which may exist between ATIP and GA-GST. The supernatant recovered was brought into contact with the GA-GST-ATIPmouse-short or GA-GSTalone beads overnight at 4° C. After contact, the beads were rinsed three times in 20 mM Tris-HCl buffer, 300 mM NaCl, 1 mM EDTA and once in “column buffer”.

[8] = molecular target: T4, C-terminal end of human AT1 receptor (Leu 297-Glu 359); assay: In vitro GST pull-down of MBP-AT1 on GA-GST-ATIPmouse-short beads; format: binding; conditions: SDS-PAGE and anti-MBP immunoblot; FIG. 10

Molecule | inhibition of the phosphorylation of the insulin receptor (AT2 receptor [1]) | inhibition of the phosphorylation of IRβ induced by insulin (AT2 receptor [2]; CHO-hAT2 cells, 100 nM, all insulin doses between 0.1 and 0.001 μg/ml, 5 minutes) | inhibition of the phosphorylation of IRβ (AT2 receptor [2]; CHO-hAT2 cells, induced by 0.01 μg/ml insulin, n=7) | inhibition of insulin-induced tyrosine phosphorylation of SIRP (120 kDa) (AT2 receptor [2]; clone CHO-hAT2) | interaction with the C-terminal end of AT2 in the two-hybrid system [3] | two-hybrid interaction with the C-terminal end of the human bradykinin receptor [4] | two-hybrid interaction with the C-terminal end of the human β2 adrenergic receptor [5] | two-hybrid interaction with the C-terminal end of the rat AT1 receptor [6] | retention of the MBP-AT2 protein on GA-GST-ATIPmouse-short beads [7] | retention of the MBP-AT1 protein on GA-GST-ATIPmouse-short beads [8]
CGP42112 | not observed | inhibit | 64±4% | inhibited | – | – | – | – | – | –
B1 | – | – | – | – | interacts specifically | negative results | negative results | negative results | specific retention | not retained in a specific manner
